This is an account of results in patent publication US12611470B2, “Chromatin-opening element for stable long term gene expression” (CZ Biohub SF, LLC, priority 2019, dated 2026).

The test system of the data set is P19 cells. As to the kind of experiment: Lentiviral transduction silencing experiment, UCOE linked to CMV, EF1α, RSV or PGK promoter driving GFP. The format is cell-based, mouse. The following applies: for anti-silencing performance across all four tested promoters: CMV, EF1α, RSV, PGK promoters. The source says: The graphs show the raw data of measured percent GFP positive cells (% GFP+) for each construct over time. Transduced populations were sorted into triplicate wells using FACS at day 0 (5 days after lentiviral transductions) to begin the study at 100% GFP positive cells. Expression is lost quickly within the first 10 days, and then stabilizes around day 15. Data is reported as mean±SD from biological triplicates. Two positive UCOE controls (A2UCOE, 3′UCOE) and a negative control (no insulator region) were used.
Percent GFP positive cells at the final timepoint (day 26 for CMV and RSV, day 27 for PGK and EF1α) of the lentivirus silencing experiment across the four tested promoters is plotted. P19 cells were FACS-sorted five days after transduction (day 0) and then assayed over a 26 or 27-day time period thereafter. Data is reported as mean±SD from three biological replicates.
Two plasmids (pCS3800: encoding HIV-1 Gag; pCS380: encoding VSVg envelope protein) were used with varying versions of the donor plasmid pCS3799. HEK293T cells were plated at 5×10^6 cells in a 10 cm dish. Twenty-four hours after plating, the three plasmids (10 μg donor, 8 μg pCS3800, 10 μg pCS3801) were co-transfected together using a calcium phosphate protocol (Zufferey, R. T. and Trono, D. (2001) Current Protocols in Human Genetics, 26 (1), 12.10.1-12.10.12; DOI: 10.1002/0471142905.hg1210s26 (55)). The total DNA was brought to 500 μL in water, to which 500 μL of 2×HEPES-buffered saline, pH7.0 (Alfa Aesar) was added and mixed. One-tenth of the total volume (100 μL) of 2.5 M calcium chloride (Sigma-Aldrich) was then added to the mixture, followed by a 20-minute incubation. The mixture was then added to the plate in a dropwise manner. Media was replaced six hours later, and the supernatant was collected at 48 hr after the transfection, filtered through 0.4 μm filter, and frozen at −80° C. in 1 mL aliquots. Lentiviral aliquots were thawed in a 37° C. bead bath before transductions.
P19 cells were plated at 20-30,000 cells/well in 12-well plates one day before transduction. Twenty-four hours after plating, cells were transduced at varying dilutions of the lentiviral stock (ranging from 1:2 to 1:100) in DMEM+10% FBS with 8 μg/mL polybrene (Santa Cruz Biotechnologies). Media was refreshed on P19 cells 24 hours after transduction, and cells were passaged and assayed through a MACSQuant® VYB flow cytometer (Miltenyi Biotec) 48 h after transduction. MOI was determined by reporter expression at this timepoint using the following formula: MOI=ln (1/1-p) where p is the % of cells that are GFP positive at 48 hours post-transduction (Chen, S. et al. (2015) Cell, 160, 1246-1260 (56)).
Cells were FACS-sorted on the BD Influx™ cell sorter at the Stanford FACS Facility using the 488-nm laser and 525/40 filter to assay GFP expression. After gating for singlets and viability, GFP+ gate was drawn to be <0.1% GFP positive in non-transduced P19 cells. GFP+ gates were re-drawn for each promoter set to avoid the ˜10% highest and lowest expressing cells within the GFP+ gate, but the same gate was used for every experimental condition under the same promoter. Triplicate wells of each population (12-15,000 cells/well in a 24-well plate) were collected.
Fluorescence data throughout silencing experiments was obtained using a MACSQuant® VYB flow cytometer (Miltenyi Biotec). EGFP was measured through the 488-nm laser and 525/50 nm band pass filter. Flow cytometry data was analyzed using the FlowJo™ single cell flow cytometry analysis software (Tree Star). After being gated for singlets and viability, GFP+ gates in FlowJo were drawn such that a non-transfected or non-transduced P19 cell population was at 1% GFP+. Median values reported are of cells within the GFP+ gate, both % GFP positive and median are reported with the standard deviation of biological replicates. […]

The mark [1] stands for this setting: Ef1α promoter, day 27 after FACS sort to 100% GFP+.

B1: Candidate 6-3: Truncated SRF-UCOE variant having a 241 base pair 3′ end deletion, SEQ ID NO:4 (nucleic acid)
DNA: GCACACGACCACAATTCCACTGAAAGCATTTTAATACGGAACTTGTCACTCCCAGGGAGCCTCCGCTCAGCCGGCAGTTGGTTCATTTCAATCCCCACGACAACCCTTCAAAGTGCAGGGCAGACAGCAGGTGGCTCTGCCCAGGCGCCTGGATCACAGCCCGGCCTGCAGCCCTCACCTGGGCGCGGGGAGACCCTGAGGACGCTCCTCCAGGCGGCGCTGGCCGGGGCCTGCGGACACGGACGGGCGGGCTGAGCTCCGGGACCCCTCCCCGCGCCCCGCACCCCGCACCCCGCACCCCGCACCCCGCACCCGGCGCTCACCCGTCCCAGCCCCGCCGCCCGCAGCCCCAGCTGCAACGCAGCCACCGCCGCCATCGCACCCGGCCCCGCGGGCGCTTCCGGGACGCAGGAGGCATCTGCATCCGGGGCGCCGCTGAGTCCCGCCCAGAGCCCCGCCCCCGGCTCCAGGTTCTGCGAGCGGCTTCCGCCGGGCTGCTCCGCGGGCGCGTCGGCCATGAGCGAGTTGCCGGGCGACGTGCGGGCGTTTCTGCGGGAGCACCCGAGCCTGCGGCTCCAGACGGACGCCCGCAAGGTTCGCAGCGCGGGAGGGGAACGGAGTGGCGGAGAAGGGCGCAGTTGGGATGAGGGGCTGAGGGGAGGGCAGGGGAGAGGAGAGGGCAGGGGAGAGGGGAGAGGGGAGAGCAGGAGAGAGGGGAAGGCAGGGGAGAGGGCGCGGCGGGATCAGGGGAGGAGAGGGAA
Take B1: the “anti-silencing performance across all four tested promoters” value was “most consistent activity”. Also, for the setting “CMV promoter, day 26”, the “% GFP+ cells at final timepoint” value was found to be 39% and the “improvement over the negative control” value stood at 3 fold. For the same molecule, the “% GFP+ cells, representative example (one biological replicate)” value (“% GFP+ cells … (one biological replicate)” for short) (EF1a promoter, day 27) came to 69%. Also, under setting [1], the “% GFP+ cells at final timepoint” value was “greater than 65%”. In addition, the “GFP positive cells / expression compared to the negative control” value (Ef1α promoter, final timepoint) is listed as “more than four times”. In addition, where the note is “PGK promoter, day 27”, the “% GFP+ cells at final timepoint” value was 49% and the “% GFP+ cells … (one biological replicate)” value is 47.8%. Moreover, the “% GFP+ cells at final timepoint” value (RSV promoter, day 26) was determined as 66%.

B2: Candidate 6-2: Truncated SRF-UCOE variant having a 478 base pair 5′ end deletion, SEQ ID NO:3 (nucleic acid)
DNA: AGCGGCTTCCGCCGGGCTGCTCCGCGGGCGCGTCGGCCATGAGCGAGTTGCCGGGCGACGTGCGGGCGTTTCTGCGGGAGCACCCGAGCCTGCGGCTCCAGACGGACGCCCGCAAGGTTCGCAGCGCGGGAGGGGAACGGAGTGGCGGAGAAGGGCGCAGTTGGGATGAGGGGCTGAGGGGAGGGCAGGGGAGAGGAGAGGGCAGGGGAGAGGGGAGAGGGGAGAGCAGGAGAGAGGGGAAGGCAGGGGAGAGGGCGCGGCGGGATCAGGGGAGGAGAGGGAAGGGGGCGCGGCAGGAGGGGGCACCAGGGAGCGGAGCCCTGGCCCTCCTGACGTCCTGCCCGCCCACGCGTCCGCAGGTGAGGTGCATCCTGACAGGTCACGAGCTGCCCTGCCGCCTGCCGGAGCTCCAGGTCTACACCCGCGGCAAAAAGTACCAGCGGCTGGTCCGCGCCTCCCCGGCCTTCGACTATGCAGAGTTCGAGCCGCACATCGTGCCCAGCACCAAGAACCCGTAGGTGGTC
B2: the “anti-silencing performance across all four tested promoters” value is recorded as “failed to outperform the negative control in 3 of the 4 promoters tested”. For the same molecule, for the setting “CMV promoter”, the “efficacy in resisting silencing” value is reported as “best-performing population”. Further, under “CMV promoter, day 26”, the “% GFP+ cells at final timepoint” value was 55%; the “% GFP+ cells … (one biological replicate)” value was 59.2%; the “improvement over A2UCOE” value is listed as 1.4 fold; the “improvement over the negative control” value is recorded as 4.4 fold. The “efficacy in resisting silencing” value (Ef1α promoter) is reported as “ineffective”. For the same molecule, the “% GFP+ cells at final timepoint” value under setting [1] was 11%. The “efficacy in resisting silencing” value (PGK promoter) was “substantially less effective than the other Candidate 6 sequences”. Besides, the “% GFP+ cells at final timepoint” value (PGK promoter, day 27) turned out to be 17%. Moreover, under “RSV promoter”, the “efficacy in resisting silencing” value is reported as “ineffective”.
